Here are results for one molecule from US20040258747A1 (G GASLINI CHILDREN S HOSPITAL, published 2004).

This assay deals with T1, CD13 (aminopeptidase N) as expressed on THP-1 cells (human acute monocytic leukemia) (human, UniProt P15144 2-967).
T1 construct: whole, on cells; The CD13 form on THP-1 is recognised by WM15 but not by the NGR liposomes
The assay is described as follows: FACS of doxorubicin fluorescence, THP-1 cells 1 h at 4 C.

Ends that are not written are not given here.

T1 sequence (P15144 2-967): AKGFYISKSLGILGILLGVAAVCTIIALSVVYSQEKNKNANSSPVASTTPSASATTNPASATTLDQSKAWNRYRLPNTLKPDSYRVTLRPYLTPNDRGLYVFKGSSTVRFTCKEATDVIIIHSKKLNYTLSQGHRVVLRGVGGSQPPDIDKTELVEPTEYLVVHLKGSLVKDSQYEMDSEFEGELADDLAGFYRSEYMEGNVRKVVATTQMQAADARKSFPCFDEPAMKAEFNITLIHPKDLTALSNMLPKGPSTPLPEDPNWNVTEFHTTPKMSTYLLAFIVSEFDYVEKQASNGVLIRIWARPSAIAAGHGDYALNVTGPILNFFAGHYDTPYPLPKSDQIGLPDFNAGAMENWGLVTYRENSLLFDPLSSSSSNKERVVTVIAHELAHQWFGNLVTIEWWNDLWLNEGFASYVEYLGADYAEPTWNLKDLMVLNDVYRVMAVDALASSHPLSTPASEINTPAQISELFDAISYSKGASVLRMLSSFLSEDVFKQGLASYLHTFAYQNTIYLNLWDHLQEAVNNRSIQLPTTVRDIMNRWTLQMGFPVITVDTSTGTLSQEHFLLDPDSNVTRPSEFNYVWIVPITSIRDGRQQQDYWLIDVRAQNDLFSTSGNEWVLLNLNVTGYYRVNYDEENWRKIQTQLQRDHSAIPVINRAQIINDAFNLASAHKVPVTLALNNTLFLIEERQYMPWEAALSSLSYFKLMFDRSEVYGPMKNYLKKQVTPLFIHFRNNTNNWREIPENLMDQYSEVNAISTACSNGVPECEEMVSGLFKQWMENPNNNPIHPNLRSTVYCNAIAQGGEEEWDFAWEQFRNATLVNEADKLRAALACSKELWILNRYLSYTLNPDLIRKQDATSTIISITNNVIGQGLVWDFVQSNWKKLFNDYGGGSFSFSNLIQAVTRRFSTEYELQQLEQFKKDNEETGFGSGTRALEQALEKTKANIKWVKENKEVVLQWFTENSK

B1: ARA-targeted (sham-targeted) sterically stabilized liposomal doxorubicin (ARA-SL[DXR]): control peptide GARAGGVRSSSRTPSDKYC coupled to the liposome surface (peptide)
peptide: GARAGGVRSSSRTPSDKYC(PEG2000‑DSPE‑MAL (liposome))
modifications: not fully specified; also: on surface of doxorubicin-loaded sterically stabilized liposome
notes: Control formulation; Same liposome as NGR-SL[DXR], with NGR replaced by ARA in the peptide; also called mismatched peptide ARA
In the case of B1, the binding result is on record as “no binding”.
